Where a chain is given by its changes, count along the chain named.
B1: GTGCAC_site9873 (dsDNA)
DNA 1: CCCTCCCCATGTTTAGTGCAAAAATATTTGAAATTG
DNA 2: CAATTTCAAATATTTTTGCACTAAACATGGGGAGGG
B2: GTGCAC_site9938 (dsDNA)
DNA 1: GAATTATAAATTATAGTGCATAAAATTATGGCATAA
DNA 2: TTATGCCATAATTTTATGCACTATAATTTATAATTC
B3: GTGCAC_site10220 (dsDNA)
DNA 1: CATATAAAAAATATGGTGCAGTTTTTTTTTTTTTTT
DNA 2: AAAAAAAAAAAAAAACTGCACCATATTTTTTATATG
B4: GTGCAC_site9995 (dsDNA)
DNA 1: AAAGGAAAAATCCAAGTGCATTATTATTTTCACAAA
DNA 2: TTTGTGAAAATAATAATGCACTTGGATTTTTCCTTT
B5: GTGCAC_site9974 (dsDNA)
DNA 1: ATATGAAGTTATATAGTGCACATGTACAACCAAATC
DNA 2: GATTTGGTTGTACATGTGCACTATATAACTTCATAT
B6: GTGCAC_site10062 (dsDNA)
DNA 1: TCTATTTTCTTATGAATGCACTAATTTATAAAACGT
DNA 2: ACGTTTTATAAATTAGTGCATTCATAAGAAAATAGA
B7: GTGCAC_site10240 (dsDNA)
DNA 1: CTTTTAGAATAATCAGTGCAAAAAAAAAAAAAAAAA
DNA 2: TTTTTTTTTTTTTTTTTGCACTGATTATTCTAAAAG
B8: GTGCAC_site9782 (dsDNA)
DNA 1: AAAATATAAATTCATGTGCACATATATATTTTGTTA
DNA 2: TAACAAAATATATATGTGCACATGAATTTATATTTT
B9: GTGCAC_site9462 (dsDNA)
DNA 1: AACTGTACAATTTTTGTGCACAATAATTATTAATAT
DNA 2: ATATTAATAATTATTGTGCACAAAAATTGTACAGTT
B10: GTGCAC_site9467 (dsDNA)
DNA 1: AAATAATGAAACAAAGTGCATAAAAATATACATATA
DNA 2: TATATGTATATTTTTATGCACTTTGTTTCATTATTT
B11: GTGCAC_site10757 (dsDNA)
DNA 1: TATTAATTTCGGGAAGTGCATTATGTTTATAGAATA
DNA 2: TATTCTATAAACATAATGCACTTCCCGAAATTAATA
B12: GTGCAC_site9417 (dsDNA)
DNA 1: TAATATTATTTTTCAGTGCAATATAACCTTAGAATT
DNA 2: AATTCTAAGGTTATATTGCACTGAAAAATAATATTA
B13: GTGCAC_site10322 (dsDNA)
DNA 1: TTTTTTTTTTTGTGAGTGCACGTATGAAGAGAAAAA
DNA 2: TTTTTCTCTTCATACGTGCACTCACAAAAAAAAAAA
B14: GTGCAC_site9491 (dsDNA)
DNA 1: AATAATAAAATAAAAGTGCATTAATTATAATTCTTT
DNA 2: AAAGAATTATAATTAATGCACTTTTATTTTATTATT
B15: GTGCAC_site9508 (dsDNA)
DNA 1: TAATAAAAAGTTGAGGTGCATATAGAGTTCTTCTTT
DNA 2: AAAGAAGAACTCTATATGCACCTCAACTTTTTATTA
B16: GTGCAC_site9779 (dsDNA)
DNA 1: TTTTGTTATAATAAAGTGCATTTAGTCGGGTTACAA
DNA 2: TTGTAACCCGACTAAATGCACTTTATTATAACAAAA
B17: GTGCAC_site9494 (dsDNA)
DNA 1: TTGTTTTTAATATCGGTGCAATGGAAAGAAAAGAAG
DNA 2: CTTCTTTTCTTTCCATTGCACCGATATTAAAAACAA
B18: GTGCAC_site10266 (dsDNA)
DNA 1: TCTTAAAATATATAGGTGCAAAAAAAAAAAAAAAAA
DNA 2: TTTTTTTTTTTTTTTTTGCACCTATATATTTTAAGA
B19: GTGCAC_site10268 (dsDNA)
DNA 1: TTTTTTGTTATTGGCGTGCACATATCCATTTATAGT
DNA 2: ACTATAAATGGATATGTGCACGCCAATAACAAAAAA
B20: GTGCAC_site9926 (dsDNA)
DNA 1: GCAGCAGCATTTTCAGTGCATTATTATATTGTTCAT
DNA 2: ATGAACAATATAATAATGCACTGAAAATGCTGCTGC
B21: GTGCAC_site10289 (dsDNA)
DNA 1: TTTAAAATACAGAAGGTGCATTTAACATATTTGTAT
DNA 2: ATACAAATATGTTAAATGCACCTTCTGTATTTTAAA
B22: GTGCAC_site10474 (dsDNA)
DNA 1: TTTTTTGTTACAACAGTGCAAAAAAACCTTAATGTT
DNA 2: AACATTAAGGTTTTTTTGCACTGTTGTAACAAAAAA
B23: GTGCAC_site10615 (dsDNA)
DNA 1: ATTTTTTTTGTAAAAGTGCATATATATATATATATA
DNA 2: TATATATATATATATATGCACTTTTACAAAAAAAAT
B24: GTGCAC_site10675 (dsDNA)
DNA 1: GTAGTTATATTAAGGGTGCTTAATTAGATTAAACAA
DNA 2: TTGTTTAATCTAATTAAGCACCCTTAATATAACTAC
B25: GTGCAC_site10026 (dsDNA)
DNA 1: ATATAAGTATTTTGAATGCACTTTCTTTTTTTTTTT
DNA 2: AAAAAAAAAAAGAAAGTGCATTCAAAATACTTATAT
B26: GTGCAC_site10697 (dsDNA)
DNA 1: AATATTTCTCATTTTGTGCACTGAAAAATGTAATAT
DNA 2: ATATTACATTTTTCAGTGCACAAAATGAGAAATATT
B27: GTGCAC_site10309 (dsDNA)
DNA 1: GTTAATTTTTGTATAGTGCAAAAATATAATAGTATG
DNA 2: CATACTATTATATTTTTGCACTATACAAAAATTAAC
B28: GTGCAC_site10204 (dsDNA)
DNA 1: GGAAAATACATTCCAGTGCATTAATTTATTCAACGT
DNA 2: ACGTTGAATAAATTAATGCACTGGAATGTATTTTCC
B29: GTGCAC_site10494 (dsDNA)
DNA 1: AATATATAGGAAAAAGTGCAATAAATGAACAAAATA
DNA 2: TATTTTGTTCATTTATTGCACTTTTTCCTATATATT
B30: GTGCAC_site10692 (dsDNA)
DNA 1: ATTATTTATATTATGGTGCATAATTTTGGGTTTCTT
DNA 2: AAGAAACCCAAAATTATGCACCATAATATAAATAAT
B31: GTGCAC_site9626 (dsDNA)
DNA 1: TTTATTAATAAAAAGGTGCAATCAGGAAAAATTATC
DNA 2: GATAATTTTTCCTGATTGCACCTTTTTATTAATAAA
B32: GTGCAC_site10781 (dsDNA)
DNA 1: ACATTTTTGGTTTTAGTGCAATATGAATTATTTTAT
DNA 2: ATAAAATAATTCATATTGCACTAAAACCAAAAATGT
B33: GTGCAC_site10217 (dsDNA)
DNA 1: ATATATTTTTGTAGTGTGCACGTTTATATGGTGAAA
DNA 2: TTTCACCATATAAACGTGCACACTACAAAAATATAT
B34: GTGCAC_site9648 (dsDNA)
DNA 1: ATAATTTCACAAATAGTGCAAAAATTAGTAAGAATA
DNA 2: TATTCTTACTAATTTTTGCACTATTTGTGAAATTAT
B35: GTGCAC_site9543 (dsDNA)
DNA 1: CAATATTTGTTATGGGTGCAAACCGCATATATATAA
DNA 2: TTATATATATGCGGTTTGCACCCATAACAAATATTG
B36: GTGCAC_site9428 (dsDNA)
DNA 1: B35 DNA 1 with C1A, T6G, G25A
DNA 2: B35 DNA 2 with C12T, A31C, G36T
B37: GTGCAC_site10687 (dsDNA)
DNA 1: TATATATATTATATAGTGCATTGAAGAAGGGGATTT
DNA 2: AAATCCCCTTCTTCAATGCACTATATAATATATATA
B38: GTGCAC_site10469 (dsDNA)
DNA 1: ATTTTCACCTGAACGGTGCATATTTAATTTTAGGTT
DNA 2: AACCTAAAATTAAATATGCACCGTTCAGGTGAAAAT
B39: GTGCAC_site10317 (dsDNA)
DNA 1: TTATATTTTCTCCGCGTGCACATATGTATACTATAC
DNA 2: GTATAGTATACATATGTGCACGCGGAGAAAATATAA
B40: GTGCAC_site10398 (dsDNA)
DNA 1: AAATACTTATTCGTGGTGCAACAATTTTAAAAATTA
DNA 2: TAATTTTTAAAATTGTTGCACCACGAATAAGTATTT
B41: GTGCAC_site9746 (dsDNA)
DNA 1: TATAATTAATTAGAAGTGCATTAGGTAACAACTGTC
DNA 2: GACAGTTGTTACCTAATGCACTTCTAATTAATTATA
B42: GTGCAC_site9423 (dsDNA)
DNA 1: ACACATACACATTAGGTGCATATATTTCAATATTAC
DNA 2: GTAATATTGAAATATATGCACCTAATGTGTATGTGT
B43: GTGCAC_site10102 (dsDNA)
DNA 1: TATATTTATATATTAGTGCACTTTTTGTTAATTTTT
DNA 2: AAAAATTAACAAAAAGTGCACTAATATATAAATATA
B44: GTGCAC_site9804 (dsDNA)
DNA 1: TCAAAAGAATAATTGGTGCAAATTATATAATATAAT
DNA 2: ATTATATTATATAATTTGCACCAATTATTCTTTTGA

molecular target: AP2-I D3 (Plasmodium falciparum, UniProt Q8IJW6 910-1027); test: gcPBM; about 25 ug protein; PBS, 1% milk, 0.2 mg/ml BSA, salmon testes DNA, 0.03% Triton X-100; settings: tags: N-terminal GST (pGEX-4T-1), kept; label: surface-attached array probe

Binder	binding signal
B1	10.9 ln median PBM intensity, better of two orientations
B2	10.8 ln median PBM intensity, better of two orientations
B3	10.3 ln median PBM intensity, better of two orientations
B4	11.4 ln median PBM intensity, better of two orientations
B5	11.4 ln median PBM intensity, better of two orientations
B6	10.8 ln median PBM intensity, better of two orientations
B7	10.1 ln median PBM intensity, better of two orientations
B8	9.03 ln median PBM intensity, better of two orientations
B9	11.3 ln median PBM intensity, better of two orientations
B10	10.6 ln median PBM intensity, better of two orientations
B11	11.7 ln median PBM intensity, better of two orientations
B12	11.3 ln median PBM intensity, better of two orientations
B13	11.2 ln median PBM intensity, better of two orientations
B14	11.9 ln median PBM intensity, better of two orientations
B15	10.5 ln median PBM intensity, better of two orientations
B16	10.4 ln median PBM intensity, better of two orientations
B17	10.2 ln median PBM intensity, better of two orientations
B18	10.9 ln median PBM intensity, better of two orientations
B19	10.4 ln median PBM intensity, better of two orientations
B20	11.6 ln median PBM intensity, better of two orientations
B21	11.6 ln median PBM intensity, better of two orientations
B22	10.2 ln median PBM intensity, better of two orientations

Binder	binding signal
B23	10.5 ln median PBM intensity, better of two orientations
B24	10.8 ln median PBM intensity, better of two orientations
B25	10.5 ln median PBM intensity, better of two orientations
B26	11 ln median PBM intensity, better of two orientations
B27	10.6 ln median PBM intensity, better of two orientations
B28	11.8 ln median PBM intensity, better of two orientations
B29	11.3 ln median PBM intensity, better of two orientations
B30	11.6 ln median PBM intensity, better of two orientations
B31	10.7 ln median PBM intensity, better of two orientations
B32	11 ln median PBM intensity, better of two orientations
B33	10.5 ln median PBM intensity, better of two orientations
B34	10.3 ln median PBM intensity, better of two orientations
B35	10.3 ln median PBM intensity, better of two orientations
B36	10.2 ln median PBM intensity, better of two orientations
B37	11.1 ln median PBM intensity, better of two orientations
B38	10 ln median PBM intensity, better of two orientations
B39	10.2 ln median PBM intensity, better of two orientations
B40	10.4 ln median PBM intensity, better of two orientations
B41	11.5 ln median PBM intensity, better of two orientations
B42	10.6 ln median PBM intensity, better of two orientations
B43	11.8 ln median PBM intensity, better of two orientations
B44	10.8 ln median PBM intensity, better of two orientations

— article PMC11417369, “DNA sequence and chromatin differentiate sequence-specific transcription factor binding in the human malaria parasite Plasmodium falciparum”
